{"source": "paper PMC4742702", "about": "(mBio, 2016)", "molecules": {"B1": {"name": "nanobody nano-L06 (VHH)", "VHH": "QVQLVESGGGSVQAGGSLRLSCTASGFTFDDSDMGWYHQAPGNECELVSAIFSDGSTYYADSVKGRFTISRDNAKNTVYLQMNSLKPEDTAMYYCAAATTTVASPPVRHVCNGYWGQGTQVTVSS"}}, "key": {"[1]": {"target": "trypsin-cleaved Tuc2009 RBP head domain (in the nano-L06 complex) (Lactococcus phage Tuc2009)", "test": "crystal structure"}, "[2]": {"target": "serendipitously cleaved BppL head domain (residues 52 to 173) in the tripod crystal (Lactococcus phage Tuc2009)", "test": "crystal structure"}, "[3]": {"target": "BppUct (C-terminal portion of Tuc2009 BppU, residues 194 to 322) (Lactococcus phage Tuc2009)", "test": "crystal structure"}, "[4]": {"target": "Tuc2009 BppL (RBP) as in the tripod (Lactococcus phage Tuc2009)", "test": "crystal structure"}, "[5]": {"target": "T1, phage Tuc2009 receptor binding protein (RBP, BppL, ORF53) (Lactococcus phage Tuc2009)", "T1 chain": "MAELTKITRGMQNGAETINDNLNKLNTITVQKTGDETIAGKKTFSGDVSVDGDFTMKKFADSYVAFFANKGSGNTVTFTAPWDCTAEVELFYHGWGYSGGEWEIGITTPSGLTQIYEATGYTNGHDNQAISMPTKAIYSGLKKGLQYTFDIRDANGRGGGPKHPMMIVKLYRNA", "test": "BLI"}, "[6]": {"target": "T2, Tuc2009 tripod BppUctAL complex (BppUct/BppA/BppL) (Lactococcus phage Tuc2009)", "T2 chain 1": "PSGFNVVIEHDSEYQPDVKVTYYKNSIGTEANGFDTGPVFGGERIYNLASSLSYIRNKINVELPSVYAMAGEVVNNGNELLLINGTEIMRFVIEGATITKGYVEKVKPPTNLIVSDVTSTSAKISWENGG", "T2 chain 2": "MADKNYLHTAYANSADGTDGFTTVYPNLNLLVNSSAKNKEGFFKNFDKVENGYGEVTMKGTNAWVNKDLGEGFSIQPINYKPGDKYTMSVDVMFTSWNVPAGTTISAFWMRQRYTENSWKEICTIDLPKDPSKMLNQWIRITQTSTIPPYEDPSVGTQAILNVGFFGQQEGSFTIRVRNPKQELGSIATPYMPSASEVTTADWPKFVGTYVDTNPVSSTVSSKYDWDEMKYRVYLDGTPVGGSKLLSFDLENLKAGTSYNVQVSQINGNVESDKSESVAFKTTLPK", "T2 chain 3": "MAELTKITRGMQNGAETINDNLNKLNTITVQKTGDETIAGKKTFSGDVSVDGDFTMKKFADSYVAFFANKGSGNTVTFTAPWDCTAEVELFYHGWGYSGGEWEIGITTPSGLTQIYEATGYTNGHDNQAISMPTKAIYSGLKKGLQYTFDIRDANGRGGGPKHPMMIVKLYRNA", "test": "BLI"}}, "data": [{"molecule": "trypsin-cleaved Tuc2009 RBP head domain (in the nano-L06 complex) (domain or fragment)", "values": [{"measurement": "stoichiometry N", "setting": "[1]", "result": 3}]}, {"molecule": "serendipitously cleaved BppL head domain (residues 52 to 173) in the tripod crystal (domain or fragment)", "values": [{"measurement": "stoichiometry N", "setting": "[2]", "result": 3}]}, {"molecule": "BppUct (C-terminal portion of Tuc2009 BppU, residues 194 to 322) (domain or fragment)", "values": [{"measurement": "stoichiometry N", "setting": "[3]", "result": 3}]}, {"molecule": "Tuc2009 BppL (RBP) as in the tripod (natural protein)", "values": [{"measurement": "stoichiometry N", "setting": "[4]", "result": 3}]}, {"molecule": "B1", "values": [{"measurement": "Kd", "setting": "[5]", "result": "9.1 ± 0.7", "unit": "nM"}, {"measurement": "Kd", "setting": "[6]", "result": "9.1 ± 0.6", "unit": "nM"}]}]}
